From paper PMC8584621 come the findings set out here.

Data set [1] has as its target T1, SCO3932 (GntR-like, HutC subfamily) (Streptomyces coelicolor A3(2) M145) (UniProt Q9X9T6).
T1 sequence: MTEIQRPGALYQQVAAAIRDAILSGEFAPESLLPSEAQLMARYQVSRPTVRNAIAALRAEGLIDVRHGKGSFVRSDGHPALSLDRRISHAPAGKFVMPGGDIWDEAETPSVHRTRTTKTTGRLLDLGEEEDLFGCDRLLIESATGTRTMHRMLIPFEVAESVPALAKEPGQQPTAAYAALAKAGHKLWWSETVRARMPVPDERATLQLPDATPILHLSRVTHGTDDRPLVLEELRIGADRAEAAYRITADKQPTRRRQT
Nature of the data set: DNase I footprinting. The following applies: EMSA: 10 mM Tris-HCl pH 7.5, 50 mM KCl, 1 mM DTT, herring sperm DNA 100 ng, DTT/Tween20, 0.03 pmol probe in 16 uL, 20 min room temperature; footprint: same …. Background: In EMSA bound probe runs differently from free probe, usually more slowly.

In data set [2] the target is T1, SCO3932 (GntR-like, HutC subfamily) (Streptomyces coelicolor A3(2) M145). Nature of the data set: DMS footprinting. Conditions: EMSA: 10 mM Tris-HCl pH 7.5, 50 mM KCl, 1 mM DTT, herring sperm DNA 100 ng, DTT/Tween20, 0.03 pmol probe in 16 uL, 20 min room temperature; footprint: same ….
Data set [3] relates to SCO3932 (GntR-like, HutC subfamily) (Streptomyces coelicolor A3(2) M145). The data set is described as follows: EMSA. Conditions: EMSA: 10 mM Tris-HCl pH 7.5, 50 mM KCl, 1 mM DTT, herring sperm DNA 100 ng, DTT/Tween20, 0.03 pmol probe in 16 uL, 20 min room temperature; footprint: same ….
The test system is the same in data set [4]. Nature of the data set: DNase I footprinting. The following applies: protein concentration giving protection, EMSA: 10 mM Tris-HCl pH 7.5, 50 mM KCl, 1 mM DTT, herring sperm DNA 100 ng, DTT/Tween20, 0.03 pmol probe in 16 uL, 20 min room temperature, footprint: same ….

As for “AAGGATCCGAATGGACTGCATTTCTGTGGCCTCCCTGGCCAATCCAGGACGTCCAACCTATTCGGACGTCACTTGTCCTTACGAGTGACAAGCTTGGAGCACTGTACGGCGAGAGCGCAACTACTTATGCTGACGAGTGATGTCGCGCGTGCGACGTGCCTACGACACCAGACCGGAGATGCCGAGATGACGGAGATCCAGAATTCTT (double strand) [p3932/3933 footprint probe]”, the binding in data set [1] was 100 nM; in data set [2], “binds”.

With p3932/3933 EMSA probe, the binding in data set [3] amounted to 1.9 nM. The substance p3932/3933 footprint probe came in with a binding in data set [4] (sites K1, K2) of 100 nM. Regarding pactII-orf4 EMSA probe, the binding in data set [3] is 9.4 nM. pactII-orf4 footprint probe yielded a binding in data set [4] (sites A1, A2) of 800 nM. In turn, pcpkA/D EMSA probe had a binding in data set [3] of 9.4 nM.

pcpkD footprint probe yielded a binding in data set [4] (site D) of 800 nM.
